Results: paper PMC6565748, “Environmental pH and peptide signaling control virulence of Streptococcus pyogenes via a quorum-sensing pathway” (Nature Communications, 2019)
Where a SMILES comes first, the peptide text is derived from it. Where no end group is shown, it is not given here. The star is where a group is joined. FITC = O=C1OC2(c3ccc(O)cc3Oc3cc(O)ccc32)c2ccc(NC(=S)*)cc21

Tests used:
[1] = molecular target: regulator of proteinase B (RopB), full-length, wild type; assay: FP assay; conditions: for Kd: parent: 13 ± 0.3 nM
[2] = molecular target: synthetic SIP peptide containing fluorescein modification at its amino-terminus (FITC-SIP); assay: FP assay; conditions: for Kd: parent: 6.3 ± 0.5 nM
[3] = molecular target: synthetic SIP variant SIP-L6A (Streptococcus pyogenes); assay: fluorescence polarisation; fluorescein labeled synthetic peptide titrated with purified RopB protein; 20 mM potassium phosphate pH 6.0, 75 mM NaCl, 2% DMSO, 1 mM EDTA, 0.0005% Tween 20
[4] = test system: speB expression in SIP* mutant strain; assay: Synthetic peptide addition assay, speB transcript level by qRT-PCR in SIP* mutant strain; type: cell-based, Streptococcus pyogenes
Description: Synthetic peptides of high purity (>90% purity) obtained from Peptide 2.0 (Chantilly, VA) were suspended in 100% DMSO to prepare a 10 mM stock solution. Stock solutions were aliquoted and stored at −20 °C until use. Working stocks were prepared by diluting the stock solution in 25% DMSO.
GAS strains were grown to the indicated A600 and incubated with two volumes of RNAprotect (Qiagen) for 10 min at room temperature. RNA isolation and purification were performed with an RNeasy kit (Qiagen). After quality control analysis, cDNA was synthesized from the purified RNA using Superscript III (Invitrogen) and Taqman qRT-PCR was performed with an ABI 7500 Fast System (Applied Biosystems). Comparison of transcript levels was performed by the ∆CT method of analysis using tufA as the endogenous control gene[5],[78]. The primers and probes used for qRT-PCR are listed in Supplementary Table 2.

SpeBM = assay: SpeB protease activity assay with SpeBZ-C192S zymogen as substrate; type: biochemical, Streptococcus pyogenes; conditions: SDS-PAGE; 0.25 mg/ml C192S zymogen, 0.1 µg mature SpeB, different buffer pH
Description: Purified C192S was added to a final concentration of 0.25 mg/ml in reaction mixture containing 0.1 µg of mature SpeB in different buffer pH conditions. Aliquots were collected at indicated time points and reaction was stopped by adding SDS gel-loading buffer. Proteolytic processing of C192S zymogen into mature form was visualized by SDS-PAGE.

RopB = molecular target: T1, RopB (Streptococcus pyogenes, UniProt Q9FB04); assay: Fluorescence polarization (FP) assay of RopB binding to fluoresceinated SIP peptides; conditions: Fig. 3c; compared to SIP (SIP-WT)
T1 sequence (Q9FB04 1-280): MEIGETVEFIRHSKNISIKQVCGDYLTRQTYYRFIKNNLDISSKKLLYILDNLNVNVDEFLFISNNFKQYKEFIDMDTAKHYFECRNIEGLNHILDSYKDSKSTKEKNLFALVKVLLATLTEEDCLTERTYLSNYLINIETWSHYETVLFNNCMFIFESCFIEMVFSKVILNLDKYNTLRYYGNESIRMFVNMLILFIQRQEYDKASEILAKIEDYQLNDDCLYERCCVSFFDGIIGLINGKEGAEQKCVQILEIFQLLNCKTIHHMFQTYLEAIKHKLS
Description: The coding regions of the full-length and C-terminal domain (RopB–CTD) (amino acids 56–280) of ropB gene of strain MGAS10870 were cloned into plasmids pET-28a and pET-21b, respectively. Protein was overexpressed in E. coli strain BL21 (DE3). Protein overexpression and purification for both full-length RopB and RopB–CTD were carried out as described previously[37],[68]. The proteins were purified to >95% homogeneity and concentrated to a final concentration of ~ 20 mg/ml.
(§1) Fluorescence polarization-based RopB-ligand binding experiments were performed with a Biotek microplate reader (Biotek) using the […] fluorescence of fluorescein labeled DNA or synthetic peptides. The polarization (P) of the labeled DNA or synthetic peptides increases as a function of protein binding, and equilibrium dissociation constants were determined from plots of millipolarization (P × 10^–3) against protein concentration. For RopB–DNA-binding studies, 1 nM 5′-fluoresceinated oligoduplex in binding buffer (20 mM Tris–HCl pH 8.5, 200 mM NaCl, 1 mM TCEP and 25% DMSO) was titrated against increasing concentrations of purified RopB and the resulting change in polarization measured. Samples were excited at 490 nm and emission measured at 530 nm. […]

[5] = test system: RopB–speB promoter interactions; assay: FP assay of RopB–DNA binding in presence of SIP peptides; design: species or system Streptococcus pyogenes; conditions: fluoresceinated oligoduplexes with RopB binding sites from speB promoter, RopB complexed with SIP peptide (Supplementary Fig. 8c, d)
Description: as §1, with “nm. The RopB-peptide-binding studies were performed in a peptide-binding buffer composed of 20 mM potassium phosphate pH 6.0, 75 mM Nacl, 2% DMSO, 1 mM EDTA and 0.0005% Tween 20. All data were plotted using KaleidaGraph and the resulting plots were fitted with the equation P = {(Pbound − Pfree)[protein]/(KD + [protein])} + Pfree, where P is the polarization measured at a given protein concentration, Pfree is the initial polarization of the free ligand, Pbound is the maximum polarization of specifically bound ligand and [protein] is the protein concentration. Nonlinear least squares analysis was used to determine Pbound, and Kd.” for “nm.”

[6] = molecular target: T2, regulator of proteinase B (RopB), full-length, wild type (Streptococcus pyogenes (strain …)); assay: FP; pH 8.5
T2 chain: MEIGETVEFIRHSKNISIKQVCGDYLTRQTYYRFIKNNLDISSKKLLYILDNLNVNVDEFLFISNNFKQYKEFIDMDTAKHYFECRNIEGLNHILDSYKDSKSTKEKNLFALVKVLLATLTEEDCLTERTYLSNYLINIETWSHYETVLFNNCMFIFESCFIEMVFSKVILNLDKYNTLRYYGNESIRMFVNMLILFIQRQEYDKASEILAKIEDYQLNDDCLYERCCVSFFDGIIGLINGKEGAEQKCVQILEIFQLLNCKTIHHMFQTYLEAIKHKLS

[7] = molecular target: T2, regulator of proteinase B (RopB), …; assay: FP; pH 8.0
[8] = molecular target: T2, regulator of proteinase B (RopB), …; assay: FP; pH 7.5
[9] = molecular target: T2, regulator of proteinase B (RopB), …; assay: FP; pH 5.5
[10] = molecular target: T2, regulator of proteinase B (RopB), …; assay: FP; pH 6.0
[11] = molecular target: T2, regulator of proteinase B (RopB), …; assay: FP; pH 6.5
[12] = molecular target: T2, regulator of proteinase B (RopB), …; assay: FP; pH 9.0
[13] = molecular target: T2, regulator of proteinase B (RopB), …; assay: FP; pH 7.0

SpeB-inducing peptide (SIP), synthetic, unmodified L4A
ratio to parent [1]: 27
Kd [1]: 358 nM

SpeB-inducing peptide (SIP), synthetic, unmodified W2A
ratio to parent [1]: 44
Kd [1]: 570 nM

regulator of proteinase B (RopB), full-length, wild type N192A
ratio to parent [2]: 72
Kd [2]: 462 nM

regulator of proteinase B (RopB), full-length, wild type (receptor)
fold reduction in binding affinity compared to SIP [3]: 2.7 fold

SpeB-inducing peptide (SIP), synthetic, unmodified L3A
ratio to parent [1]: 41
Kd [1]: 534 nM

regulator of proteinase B (RopB), full-length, wild type N152A
ratio to parent [2]: 28
Kd [2]: 243 nM

CSCC[C@H](N)C(=O)N[C@@H](Cc1c[nH]c2ccccc12)C(=O)N[C@@H](CC(C)C)C(=O)N[C@@H](CC(C)C)C(=O)N[C@@H](CC(C)C)C(=O)N[C@@H](CC(C)C)C(=O)N[C@@H](Cc1ccccc1)C(=O)N[C@@H](CC(C)C)C(=O)O [SIP] (H-MWLLLLFL-OH; N-terminus and C-terminus assumed)
SIP-dependent speB expression (speB transcript level) ([4]; SIP* mutant strain at A600 ~1.7, THY broth adjusted to different pH, synthetic SIP, 1 h, relative to unsupplemented strain): maximal within a very narrow pH range (pH 5.5–6.0)
Ability to induce speB expression ([4]; SIP* mutant strain, THY pH 8, SIP added even at 100-fold excess, 1 h): lost the ability to induce speB expression

regulator of proteinase B (RopB), full-length, wild type F155A
ratio to parent [2]: 5
Kd [2]: 33 nM

SpeB-inducing peptide (SIP), synthetic, unmodified L5A
ratio to parent [1]: 48
Kd [1]: 625 nM

SpeB-inducing peptide (SIP), synthetic, unmodified F7A
ratio to parent [1]: 11
Kd [1]: 142 nM

regulator of proteinase B (RopB), full-length, wild type R188A
ratio to parent [2]: 67
Kd [2]: 429 nM

CC(C)C[C@H](NC(=O)[C@H]1O[C@@H]1C(=O)O)C(=O)NCCCCN=C(N)N [E64]
Proteolytic cleavage of SpeBZ-C192S by SpeBM (SpeBM): inhibited

CSCC[C@H](N)C(=O)N[C@@H](Cc1c[nH]c2ccccc12)C(=O)N[C@@H](CC(C)C)C(=O)N[C@@H](CC(C)C)C(=O)N[C@@H](CC(C)C)C(=O)N[C@@H](C)C(=O)N[C@@H](Cc1ccccc1)C(=O)N[C@@H](CC(C)C)C(=O)O [SIP-L6A] (H-MWLLLAFL-OH; N-terminus and C-terminus assumed)
Fold change reduction in Kd (RopB): ~ 2.7
Effect on RopB–promoter (operator sequence) interactions [5]: WT-like binding to operator sequences
Ability to activate RopB-dependent speB expression ([4]; SIP addition assay, SIP* mutant strain, reference DMSO-supplemented strain (Fig. 3d)): partial activity

SpeB-inducing peptide (SIP), synthetic, unmodified M1A
ratio to parent [1]: 20
Kd [1]: 259 nM

SpeB-inducing peptide (SIP), synthetic, unmodified L6A
Kd [1]: 36 nM

SpeB-inducing peptide (SIP), synthetic, unmodified L8A
ratio to parent [1]: 8
Kd [1]: 106 nM

regulator of proteinase B (RopB), full-length, wild type M267A
ratio to parent [2]: 44
Kd [2]: 283 nM

{FITC}-MWLLLLFL [synthetic SIP peptide containing fluorescein modification at its amino-terminus (FITC-SIP)]
Kd [6]: 222 nM
Kd [7]: 78.6 nM
Kd [8]: 42.1 nM
Kd [9]: 5.4 nM
Kd [10]: 1.8 nM
Kd [11]: 2.9 nM
Kd [12]: 320 nM
Kd [13]: 11.8 nM
